Source: the nanobody polyreactivity screen of Harvey et al. (2022)

Test: yeast display, Sf9 membrane polyspecificity reagent, FACS + sequencing; frameworks hold sequencing errors
Outline: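 Genes from sorted yeast were amplified by colony PCR, read by MiSeq 2 × 250 sequencing and filtered on CDR length. These cells carried a synthetic nanobody library in Saccharomyces cerevisiae BJ5465 and were sorted by FACS into low and high (top ~1%) gates on anti-HA and streptavidin fluorescence. Polyreactivity is labelled according to the gate of origin.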

Sequence	polyreactivity (PSR sort gate)
QVQLVESGGGLVQAGGSLRLSCAASGITFGRNTMGWYRQAPGKERELVAAIDSGGNTYADSVKGRFTISRDNEKNTVYLQMNSLKPEDTAVYYCAVDCGEFSSYGYWGQGTQVTVSS	low polyreactivity
QVQLVESGGGLVQAGGSLRLSCAASGITFPDNAMGWSRQAPGKERELVAAITYSGGSTYYADSVKGRFTISRDNAKNTVYLQMNSLKPEDTAVYYCAADWYWSSSYSDWEDYWGQGTQVTVSS	low polyreactivity
QVQHVESGGCLVQAGGSRRLSCAASVSIFIPNAMGWSRQAHGKERELVAAISWSGASTYYADSVKRRFTISRDNAKNTVYLQMISLKPEDTAVYYCAAYYAYRRGYDYWGQGTQVTVSS	high polyreactivity
QLQLVESGGGLFQAGGSLRISCAPSGRIFKLNAMGWYRQAPGKEMELVAAINSGTRTYYADSVKGRFTISSYNAKNTVYLQLNSLKPEDTAVYYCAAEGVWWYSRYDYWGQGTQVTVSS	high polyreactivity
QVQHVESGGGLVLAGGSLRLSCAASGRTFAYNAMGWYRQAPGKERELVAAISRSGGSTYYADSVKGRFTISRDNPKNTVYLQMYSLKPEDTAVYYSNKVTHSYVYFAAGDYWGQGTQVTVSS	high polyreactivity
QVQLQESGGGLVQAGGSLRLSCAASGTIFRFRYMGWHRQAPGTERELVAGINGGTTTYYADSVIGRFTISRDNAKNTVYLQMNSLKPDDTAVYNCAAGASRLTYYDYWGQGTQVTVSS	low polyreactivity
QVQLVESGGGLVQAGGSLRLSCAASGSTFVKNAMGWYRQAPGKERELVAAISGRGGSTYYADSVKGRFTISRDNAKNTVYLQMNSLKPEDTAVYYCNKAYSVAYTYNYWGQGTQVTVSS	high polyreactivity
QVQRVESGGGLVQAGGSLRLSCADSGTYGSYAMGWYRQAPGTEREFVAAISASGGSTYYADSVKGRFTISRDNAKNTVYLQMNSLKPEDTAVYYCNKSPRRNRQYDYWGQGSQVTVSS	high polyreactivity
QVQLVESWGGLVQAGGSLRLSCAASGSTFDRYAMGWYRQAPGKERELVAAISGSAGRTYYADSVKGRFTISRENAKNTVYLQMNTLKPEDTAVYFCAAVQIVSGNYDYYWGQGTQVTVSS	low polyreactivity
QVKLVESGGGIVQAGGSLRLSCAASGRTFGRNAMGWYRQAPGKERELVASITKRGGSTYYADSVKGRFTISRDNAKDTVYLQMNSLKPEDTAVYYCAVEAYDYWGQGTQVTVSS	high polyreactivity
QVQLVESGGGLVQAGGSLRLSCAASGSTFVSYAMGWYRQAPGKERELVAAISSGGGSTYYADSVKGRFTISRDNAKNTVYLQMNSLKPEDTAVYYCAARGYAYRAQYGYWGQGTQVTVSS	high polyreactivity
QVQLVESGGGLVQAGGSLRLSCAASGFIFSTNAKGWYSQAPGKERELVATIRSGVSTYYADSVKGRFTISRDNAKNTVYLQMNSLKPEDTAVYYCNVDDTSRTTSGGRFGQVESDYWGQGTQVTVSS	low polyreactivity
QVQLVESGGGLVQPGGSLRLSCAASGRIFGYYVMGWYRQAPRKERELVAAITGGGGSTYYADSVKGRFTISRDNEKNTVFLQMNSLKPEDTAVYYCAADLEYTNYDYDYWGQGTQVTVSS	high polyreactivity
QVQLVESGGGLVQAGGRLRLSFAASGSIFYRNVLGWYREAPGKERELVATISRGGTTNYADSVKGRFTISRDNAKNTVYLQMNSLKPEDTAVYYCAAPIGDVYVGKGYDSWGQGTQVTVSS	low polyreactivity
QVQLVESGGGLVQAGGSLRLSCAASGSIFSYYAMGWYRQAPGKERELVAGITWSGGRTYYADSVKGRFTISRDHAQNTVYLQMNSLKPEDTAVYYCAAVQWFSRRSRYDYWGQGTQVTVSS	high polyreactivity
QVQLVESGGGLVQAGGSLRLSCAASGSIFDLNAMGWYRQAPGKERELVAAISKSGGSTYYADSVKGRFTISRDNAKNTVYLQMISLKPEDSAVYYCAARYHYPGNWYNYWGQGTQVTVSS	low polyreactivity
QVQLVDSGGGLVKAGCSLRLSCAASGRIFNSYAMGLYRQAPGKETELVAAITWSGDRTNYADSVKGRFTISRDNANNTVYVQMNSLKPEDTAVYYCAADRVRSVRYGYWGKGTQVTVSS	low polyreactivity
QGQLVESGGGLVQAGGSLRLSCAASGSIVWYNAMGWYRQAPGKERELVAAINWSGGSTFYADSVKGRFTISRDNAKNTVYLQMYSLKPEDTAVYYCAADDWYTGYDYWGQGTQVTVSS	high polyreactivity
QVQLVESGGGLVQAGGSLRLSCAASGFTFAYYAMGWYRQAPGKEREFVAVITWSGGDTYYADSVKGRFTISRDNAKNTVYLQMNSLKPEDTAVSYCAATYWGTRRIYAYGYWGQGTQVTVSS	high polyreactivity
QVQIVESGGGLVQAGGSLRVSCAASGFTFDENAMGWYRQAPGINYSGASTYYADSVKGRFTISRDNAKNTVYLQMNSVKQDDTAVYYCAAEVVAQMNYWGQGTQVTVSS	low polyreactivity
QVQLVESGGGLVQAGGSLRLSCAASGITFDYNAMGWYRPAPGKERELVASITTNDDSTYYADSVKGRFTISRDNAKNTVYLQINSLKPEDTAVYSCNADQITGQFDYWGQGTQVTVSS	low polyreactivity
QVQLVESGGGLVQAGGSLRLSCAASGSIFYFYAMGWYRQAPGKERELVAAITSGGSTYYADSVEGRFTISRDNAKNTVYLQMNSLKPEDTAVYYCNAVSSYGYDYWGQGTQVTVSS	high polyreactivity

Sequence	polyreactivity (PSR sort gate)
QVQLVESGGGLVQAGGSLRLSCAASGSTFFSYAMGWYRQAPGKEREFVAAISWIDDGTYYADSVKGRFTISRDNAKNTVYLQMNSLKPEDTAVYYCAADIGAYRTWDYEYWGQGTQVTVSS	low polyreactivity
QVQLVESGGGLVQAGGSLRLSCASSGNIFDRYAMGRYRPAPGKERELVAGITWSGGSTNYADSVKGRFTISRDNAKNTVYLQMNSLKPEDTAVYYCGQANYYWGQGSQVTVSS	low polyreactivity
QVQLVESGGGLVQAGGSLRLSCADSGSTFRRYTMGWYRQAPGKERELVASITRSGGSKYYADSVKGRFTISRDNAKNTVYLQMNSLKPEDTAVYFCNKLSGYGWRSYGYWGQGTQVTVSS	high polyreactivity
QVQLVESGGGLVQAGGSLRLSCAASGRIFDYNTMGWYRQAPGKERELVAAITGGTGSTYYADSVKGRFTISRDNAKNTVYLQMNSLKPEDTAVYYCAAGFHKRVSPEILYDYWGQGTLVTVSS	low polyreactivity
QVQLVESGGGLVQAGGSLRLSCAASGSTFSGNAMGWYRQAPGKERELVAGIRQSGDSTYYADSVKGRFTISRDNAKNTVYLQMNSLKPEDTAVYDCNARAFPFGTGVQGFGFGYWGQGTQVTVSS	low polyreactivity
QVQLVESGGGLVQAGGSLRLSCAASGITFYDYAMGWYRQEPGKERELVAAINSSGVRTYYADSVKGRFTISRDNAKNTVYLQMNSLKPEDTAVYYCAAVRRGPYISRSDMDYYWGQGTQVTVSS	high polyreactivity
QVQLVESGGGLVHAGGSLRLSCAASGRTFATYAMGWYRQAPGKERELVAAITSGGSTYYADSVKGRFTISRDNAKNTVYLQMNSLKPEDTAVYYCAADLSTYRRGFDYWGQGTHVTVSS	high polyreactivity
QVQLVESGGGLVQAGGSLRLSCAASGFIFYGNTMGWYRQAPGKERELVAAISGSTGGTYYADSVKGRFTISRDNAKNTVYLQMNSLKPEDTAVYYCAAVVPWYASYSRYYYWGQGTQVTVSS	high polyreactivity
QVQLVESGGGLVQAGGSLRLSCAASGSILYTYAMGWYRQAPGKERELVASISSNAGSTYYADSVKGRFTISRDNAKNTVYLQMNSLKPEDTAVYYCNKVYGGGTYDYWGQGTQVTVSS	low polyreactivity
QVQLVESGGGLVQAGGSHRLSCAASGRTFRRNTMGWYRQAPGKERELVAAISSSGSSTYYADSVKGRFTISRDNAKNSVYLQMNSLKPEDTAVYYCAATGYPRFGYWGQGTQVTVSS	high polyreactivity
QVQLVESGGGLVQAGGSLRLSCAASGSTFLDYAMGWYRQAPGKERELVAAITSGGSTYYADSVKGRFTISRDNAKNTVYLQMNSLKPEDTAVYYCAAEQTQLYSFGWDEYWGQGTQVTVSS	low polyreactivity
QVQLVESRGGLVQAGGSLRLSCAASGRIFETNTMGWYRQAPGKEREFVAAITFSGGRTNYADSVKGRFTISRDNAKNTDYLPMNSLKPEDTAVYYCAAAGRRRKYYYWGQGTQVTVSS	high polyreactivity
QVQLVESGGGLVQAGGSLRLSCSATGSTFTINSMGWYRQAPGKERELVAATSKRGTNTYYADSVKGRFTISRDNAKNTVYLQMNSMKTEDSAVYYCKAPGHRQNGLGDYWGQGTQVTVSS	high polyreactivity
QVQLVESGGGLVQAGGSLRLICAASGITFYVYTMGWYRQAPGKERELVAAINGSGGSTNYADSVKGRFTISRDNAKNTVYLQMNSLKPEDTAVYYCAADWSLRLYDYWGQGTQVTVSS	low polyreactivity
QVQLVESGGGLVQAGGSLRLSCAASGSTFYYYAMGWYRQAPGKERELVAVIRDSDGSTDYADSVKGRFTISRDKAKNTVYLQMNSLKPEDTAVYYCAATNVRGVYYWGQGTQVTVSS	high polyreactivity
QVQLVESGGGLVQAGGSLRLSCAASGLIFPYYAMGWYRPAPGKERELVAAISRSGDSTYYADSVKGRFTISRDNAKNTVYLQMYSLKPEDTAVYYCAAVLSYSYVRYNYWGQGTQVNVSS	high polyreactivity
QVQLVESGGGLVQAGGSLRLSCAASGLIFSSYAMGWYRQAPGKERELVAAITGSGGRTYYADSVKGRFTISRDNAKNTVYLQMNSLKPEDTAVYYCAAKYPAPRYYTGYDYWGQGTQVTVSS	high polyreactivity
QDQLVESGGGLDQAGGSLRLSCAASGRIFKLYAMGWYRQAPGKERELVAAISKSGGNTYADSVKGRFTISRDNAKNTVYLQMNSLKPEETAVYYCAATVQSTSDPFDYWGQGTQVTVSS	low polyreactivity
QVQLVESGGGLVQAGGSLRLSCAASGFTFPYNAMGWYSQARGKERELVAAISRSGTRTYYADSVKGRFTISRDNAKNTVYLQMNSLKPEDTAVYYCNARAAGYSRRGPGFDYWGQGTQVTVSS	high polyreactivity
QVQLVESGGGLVQAGGSLRLSCAASGRIFGVYAMGWYRQAPGKERELVAAISEGGGSTNYADSVKGRFSISRDNAKNTVYLQMNSLKPEDTAVYYCAATYRTGVRRYYSWGQGTQVTVSS	low polyreactivity
QVELQVSGGGLVRAGGSLRLSCAASGNIFDADIMGWYRQAPGKERELVASITGGGSTSYAESAKGRFTISRDNAKNAVYLQMNSLKPEDTAVYYCAKDGYVYGDWYTYAYDYWGQGTQVTVSS	low polyreactivity
